We go through two molecules from paper PMC6391106, “Hyperfunctional complement C3 promotes C5-dependent atypical hemolytic uremic syndrome in mice” (The Journal of Clinical Investigation, 2019).

As usually defined, the Kd is the equilibrium constant for the complex coming apart.

First the molecules themselves.
B1: full-length mouse serum-derived FH (natural protein, UniProt P06909 19-1234, looked up)
chain: EDCKGPPPRENSEILSGSWSEQLYPEGTQATYKCRPGYRTLGTIVKVCKNGKWVASNPSRICRKKPCGHPGDTPFGSFRLAVGSQFEFGAKVVYTCDDGYQLLGEIDYRECGADGWINDIPLCEVVKCLPVTELENGRIVSGAAETDQEYYFGQVVRFECNSGFKIEGHKEIHCSENGLWSNEKPRCVEILCTPPRVENGDGINVKPVYKENERYHYKCKHGYVPKERGDAVCTGSGWSSQPFCEEKRCSPPYILNGIYTPHRIIHRSDDEIRYECNYGFYPVTGSTVSKCTPTGWIPVPRCTLKPCEFPQFKYGRLYYEESLRPNFPVSIGNKYSYKCDNGFSPPSGYSWDYLRCTAQGWEPEVPCVRKCVFHYVENGDSAYWEKVYVQGQSLKVQCYNGYSLQNGQDTMTCTENGWSPPPKCIRIKTCSASDIHIDNGFLSESSSIYALNRETSYRCKQGYVTNTGEISGSITCLQNGWSPQPSCIKSCDMPVFENSITKNTRTWFKLNDKLDYECLVGFENEYKHTKGSITCTYYGWSDTPSCYERECSVPTLDRKLVVSPRKEKYRVGDLLEFSCHSGHRVGPDSVQCYHFGWSPGFPTCKGQVASCAPPLEILNGEINGAKKVEYSHGEVVKYDCKPRFLLKGPNKIQCVDGNWTTLPVCIEEERTCGDIPELEHGSAKCSVPPYHHGDSVEFICEENFTMIGHGSVSCISGKWTQLPKCVATDQLEKCRVLKSTGIEAIKPKLTEFTHNSTMDYKCRDKQEYERSICINGKWDPEPNCTSKTSCPPPPQIPNTQVIETTVKYLDGEKLSVLCQDNYLTQDSEEMVCKDGRWQSLPRCIEKIPCSQPPTIEHGSINLPRSSEERRDSIESSSHEHGTTFSYVCDDGFRIPEENRITCYMGKWSTPPRCVGLPCGPPPSIPLGTVSLELESYQHGEEVTYHCSTGFGIDGPAFIICEGGKWSDPPKCIKTDCDVLPTVKNAIIRGKSKKSYRTGEQVTFRCQSPYQMNGSDTVTCVNSRWIGQPVCKDNSCVDPPHVPNATIVTRTKNKYLHGDRVRYECNKPLELFGQVEVMCENGIWTEKPKCRDSTGKCGPPPPIDNGDITSLSLPVYEPLSSVEYQCQKYYLLKGKKTITCRNGKWSEPPTCLHACVIPENIMESHNIILKWRHTEKIYSHSGEDIEFGCKYGYYKARDSPPFRTKCINGTINYPTCV
notes: mouse complement factor H, full length, from serum; also called murine FH; mouse FH
B2: murine C3b Asn1115 (complex)
chain 1: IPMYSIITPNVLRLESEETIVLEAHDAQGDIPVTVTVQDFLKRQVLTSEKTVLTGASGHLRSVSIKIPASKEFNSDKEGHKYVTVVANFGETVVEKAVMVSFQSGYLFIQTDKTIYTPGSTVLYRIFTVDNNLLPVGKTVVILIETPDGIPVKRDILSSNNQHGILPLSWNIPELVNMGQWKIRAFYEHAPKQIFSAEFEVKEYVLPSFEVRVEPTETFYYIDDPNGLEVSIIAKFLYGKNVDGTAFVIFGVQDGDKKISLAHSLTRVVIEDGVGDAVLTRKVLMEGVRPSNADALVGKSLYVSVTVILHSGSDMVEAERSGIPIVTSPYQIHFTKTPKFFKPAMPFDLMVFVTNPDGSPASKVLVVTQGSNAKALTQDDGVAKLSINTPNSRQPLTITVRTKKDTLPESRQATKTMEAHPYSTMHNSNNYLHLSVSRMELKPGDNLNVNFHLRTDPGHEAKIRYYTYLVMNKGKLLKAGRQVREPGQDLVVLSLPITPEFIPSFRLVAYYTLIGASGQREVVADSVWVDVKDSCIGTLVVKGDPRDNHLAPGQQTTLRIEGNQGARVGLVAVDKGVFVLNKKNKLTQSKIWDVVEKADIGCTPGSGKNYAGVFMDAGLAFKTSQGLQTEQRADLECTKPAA
chain 2: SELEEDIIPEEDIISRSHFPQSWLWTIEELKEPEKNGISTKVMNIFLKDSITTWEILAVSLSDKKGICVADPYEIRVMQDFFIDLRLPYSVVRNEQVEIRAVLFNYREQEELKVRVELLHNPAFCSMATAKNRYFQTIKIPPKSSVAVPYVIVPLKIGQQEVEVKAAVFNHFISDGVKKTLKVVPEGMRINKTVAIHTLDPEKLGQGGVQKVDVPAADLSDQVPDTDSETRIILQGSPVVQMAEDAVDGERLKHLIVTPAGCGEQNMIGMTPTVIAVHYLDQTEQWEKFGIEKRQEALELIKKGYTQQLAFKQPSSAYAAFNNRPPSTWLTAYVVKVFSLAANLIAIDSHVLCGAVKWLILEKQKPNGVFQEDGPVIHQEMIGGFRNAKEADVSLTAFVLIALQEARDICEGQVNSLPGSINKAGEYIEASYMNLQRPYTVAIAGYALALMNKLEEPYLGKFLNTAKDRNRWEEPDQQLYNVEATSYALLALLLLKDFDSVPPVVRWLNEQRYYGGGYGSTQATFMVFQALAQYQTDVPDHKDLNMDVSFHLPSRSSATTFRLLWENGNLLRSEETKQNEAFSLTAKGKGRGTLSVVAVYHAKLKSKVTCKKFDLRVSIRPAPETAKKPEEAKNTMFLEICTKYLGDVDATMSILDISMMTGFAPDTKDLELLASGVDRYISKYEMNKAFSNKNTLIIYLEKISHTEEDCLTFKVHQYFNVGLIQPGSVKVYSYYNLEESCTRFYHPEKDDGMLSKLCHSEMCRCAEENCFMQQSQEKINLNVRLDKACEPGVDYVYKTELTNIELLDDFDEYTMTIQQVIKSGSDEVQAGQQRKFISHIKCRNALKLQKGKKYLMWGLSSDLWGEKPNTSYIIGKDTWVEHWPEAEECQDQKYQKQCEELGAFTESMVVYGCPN
modifications: C3b made from plasma-purified C3 by factor B/factor D cleavage (C3a released); beta and alpha' chains disulfide-linked; thioester (Cys1010-Gln1013) hydrolysed; N-glycosylated; amine-coupled to CM5 …

Common to all, as to test: SPR; BIAcore S200; murine C3b (WT or Asn1115) amine coupled to a CM5 chip (930 ± 10 RU); analytes in 2-fold dilution series in HBST (10 mM HEPES, 150 mM NaCl, 0.005% Tween-20, pH 7.4), 30 μl/min for 200 s; steady-state model
Common to all, as to conditions: both partners purified

For the assay “murine C3b Asn1115”, the target named is B2.
The target in assay [1] is T1, recombinant murine FH SCRs 1–5 (mouse).
T1 construct: mouse complement factor H, short consensus repeats 1–5; also called recombinant mouse FH1–5; mFH SCRs 1–5; source: recombinant

The target of assay [2] is T2, recombinant murine Crry SCRs 1–5 (mouse).
T2 construct: mouse Crry (complement receptor 1-related protein), short consensus repeats 1–5; also called recombinant mouse Crry; mouse Crry; source: recombinant
T2 sequence (P01027 749-1663, change not shown, chain 1 of 2): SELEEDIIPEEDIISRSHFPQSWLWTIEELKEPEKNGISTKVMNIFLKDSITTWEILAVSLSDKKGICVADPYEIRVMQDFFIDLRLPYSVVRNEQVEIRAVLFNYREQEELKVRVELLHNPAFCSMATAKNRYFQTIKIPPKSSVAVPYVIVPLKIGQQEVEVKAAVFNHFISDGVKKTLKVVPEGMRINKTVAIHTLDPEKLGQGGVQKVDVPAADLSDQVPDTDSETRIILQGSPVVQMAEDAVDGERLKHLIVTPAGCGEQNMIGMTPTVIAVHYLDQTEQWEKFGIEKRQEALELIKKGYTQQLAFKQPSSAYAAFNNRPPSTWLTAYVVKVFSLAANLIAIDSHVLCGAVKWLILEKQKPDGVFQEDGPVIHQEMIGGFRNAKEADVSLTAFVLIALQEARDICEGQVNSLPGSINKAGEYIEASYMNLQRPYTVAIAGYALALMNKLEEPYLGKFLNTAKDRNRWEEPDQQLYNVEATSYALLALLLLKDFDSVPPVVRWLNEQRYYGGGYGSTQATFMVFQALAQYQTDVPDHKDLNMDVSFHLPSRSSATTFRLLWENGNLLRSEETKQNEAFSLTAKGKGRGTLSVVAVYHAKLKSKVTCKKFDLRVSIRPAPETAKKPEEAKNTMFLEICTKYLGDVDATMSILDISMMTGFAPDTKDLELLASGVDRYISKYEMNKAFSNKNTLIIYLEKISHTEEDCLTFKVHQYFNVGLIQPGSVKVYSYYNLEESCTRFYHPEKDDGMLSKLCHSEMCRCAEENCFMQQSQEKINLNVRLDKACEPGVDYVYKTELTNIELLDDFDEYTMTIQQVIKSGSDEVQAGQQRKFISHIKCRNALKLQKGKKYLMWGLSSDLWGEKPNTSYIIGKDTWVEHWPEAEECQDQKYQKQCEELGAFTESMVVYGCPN
T2 sequence (P01027 749-1663 D1115N, chain 2 of 2): as the sequence (P01027 749-1663, change not shown, chain 1 of 2) above, with D367N counted along it

Chain of murine C3b Asn1115 (P01027 749-1663, change not shown, chain 1 of 2): as the sequence (P01027 749-1663, change not shown, chain 1 of 2) above
Chain of murine C3b Asn1115 (P01027 749-1663 D1115N, chain 2 of 2): as the sequence (P01027 749-1663, change not shown, chain 1 of 2) above, with D367N counted along it

With B1, the equilibrium dissociation constant (Kd) with murine C3b Asn1115 stood at 3.7 µM.

Take B2: the Kd was 3.1 µM in assay [1] and 3.5 µM in assay [2].
